Literature values, collected in paper PMC4826273.

Target: Dll-1 (Homo sapiens) (UniProt O00548)
Assay: surface plasmon resonance

Sequence of UniProt O00548 (O00548 18-545): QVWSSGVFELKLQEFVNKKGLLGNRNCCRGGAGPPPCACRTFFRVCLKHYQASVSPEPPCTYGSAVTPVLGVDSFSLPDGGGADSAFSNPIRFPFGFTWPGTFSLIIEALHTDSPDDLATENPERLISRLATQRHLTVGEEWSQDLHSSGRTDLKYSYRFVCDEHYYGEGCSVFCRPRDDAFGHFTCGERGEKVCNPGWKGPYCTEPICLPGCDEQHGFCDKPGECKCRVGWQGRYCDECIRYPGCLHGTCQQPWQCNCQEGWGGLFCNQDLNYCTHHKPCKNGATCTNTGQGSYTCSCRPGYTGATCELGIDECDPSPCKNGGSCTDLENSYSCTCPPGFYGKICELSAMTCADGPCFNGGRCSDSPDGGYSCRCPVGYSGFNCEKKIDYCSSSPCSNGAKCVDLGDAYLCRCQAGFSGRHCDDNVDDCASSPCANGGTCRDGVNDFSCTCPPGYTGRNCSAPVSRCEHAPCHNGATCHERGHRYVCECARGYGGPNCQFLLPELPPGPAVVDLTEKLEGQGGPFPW

Kd: 130 µM
Substance: Notch1 (from UniProt P46531)
